Source: article PMC8345336
Where two headings read alike, the source gives them in different places.

What was measured:
[1] = target: soluble methane monooxygenase hydroxylase component (sMMOH), (αβγ)2, from Methylosinus trichosporium OB3b (Methylosinus trichosporium OB3b) (UniProt P27353); assay: NMR titration
[2] = target: soluble methane monooxygenase hydroxylase component (sMMOH), (αβγ)2, from Methylosinus trichosporium OB3b (Methylosinus trichosporium OB3b) (UniProt P27353); assay: NMR titration; remark: listed apart in the source
[3] = target: soluble methane monooxygenase hydroxylase component (sMMOH), (αβγ)2, from Methylosinus trichosporium OB3b (Methylosinus trichosporium OB3b) (UniProt P27353); assay: NMR titration; remark: listed apart in the source
[4] = target: MMOR (Methylosinus trichosporium) (UniProt Q53563); conditions: cited from earlier work
[5] = target: MMOB (Methylosinus trichosporium) (UniProt P27356); assay: fluorescence quenching; conditions: cited from earlier work
[6] = target: MMOR (Methylococcus capsulatus) (UniProt P22868); conditions: cited from earlier work
[7] = target: MMOB (Methylococcus capsulatus) (UniProt P18797); conditions: cited from earlier work

Question: Which results are given for “methane monooxygenase reductase component (MMOR), unlabelled (from UniProt Q53563 1-340) (enzyme)”?
Answer: Kd [1]: 0.09 µM; half dissociation value [2]: 13.7 µM; Kd [3]: 0.06 µM; half dissociation value [3]: 9.1 µM

Question: Which results are given for sMMOH (diferric) (from UniProt P27353)?
Answer: Kd [4]: 0.01 µM; Kd [5]: 0.068 µM

Question: Which results are given for sMMOH (diferric) (from UniProt P22869)?
Answer: Kd [6]: 0.9 µM; Kd [7]: 0.55 µM
